The results in this text go back to US20250197490A1 (HBM ALPHA THERAPEUTICS, published 2025).

Experiment [1] has as its target T1, corticotropin-releasing hormone (CRH) peptide (human and mouse, UniProt P01143 145-185 (rat entry), not fully specified).
T1 peptide: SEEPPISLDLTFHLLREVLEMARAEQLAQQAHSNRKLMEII
Kind of experiment: cell-based or functional assay.

Experiment [2] deals with T1, corticotropin-releasing hormone (CRH) …. The experiment is described as follows: cell-based or functional assay.
The target in experiment [3] is T2, biotinylated CRH (human and mouse, UniProt P01143 145-185 (rat entry), not fully specified; biotin; which end is not stated for the result (NT-biotin and CT-biotin forms were used)).
T2 construct: also called biotin-CRH; CRH (NT biotin)
T2 peptide: T1 peptide
Kind of experiment: ELISA, CRH (NT biotin). On the technique in general: In an ELISA, binding on a coated surface is turned into a signal by an enzyme label.

Experiment [4] has as its target T2, biotinylated CRH. Kind of experiment: ELISA, CRH (CT biotin). Here is the method: (§1) Streptavidin (Thermo, Cat: 21125) was diluted in PBS to a concentration of 2 μg/ml. 100 μl of diluted streptavidin was added per well to ELISA microplates, and the plates were incubated overnight at 4° C. […] Subsequently, plates were washed and incubated with HRP-conjugated goat anti-human IgG (H+L) antibody (Jackson, Cat: 109-035-088) at 37° C. for 1 hour. 100 μL of 3,3′,5,5′-tetramethylbenzidine (TMB) substrate (Biopanda, Cat: TMB-S-003) was added, and the plates were incubated at room temperature for 15 minutes. 100 μL of ELISA stopping solution (Solarbio, Cat #: C1058) was added to terminate the reaction, and the optical density at 450 nm (OD450 nm) was determined by an ELISA plate reader (Molecular Devices, Spectra max 384 plus).
(§2) These potential PTMs were mutated individually either in HCDR2 alone, in LCDR1 alone, or in various combinations of mutations, as detailed in Table 3. […] Most ΔPTM variants retained functional activities.

In experiment [5] the target is T1, corticotropin-releasing hormone (CRH) …. Kind of experiment: cell-based or functional assay.
Experiment [6] has as its target T2, biotinylated CRH. The experiment is described as follows: ELISA, CRH (CT biotin).
Experiment [7] concerns the target T2, biotinylated CRH. Kind of experiment: ELISA, CRH (NT biotin).
Experiment [8] addresses T2, biotinylated CRH. The experiment is described as follows: ELISA, CRH (NT biotin).
For experiment [9], the target named is T2, biotinylated CRH. The experiment is described as follows: ELISA, CRH (CT biotin).
For experiment [10], the target named is T1, corticotropin-releasing hormone (CRH) …. Kind of experiment: cell-based or functional assay.
In experiment [11] the target is T2, biotinylated CRH. The experiment is described as follows: ELISA, CRH (NT biotin). As for the experimental part:
as §1, §2

Experiment [12] addresses T1, corticotropin-releasing hormone (CRH) …. The experiment is described as follows: cell-based or functional assay.
Experiment [13] deals with T2, biotinylated CRH. Kind of experiment: Octet in-tandem competition on captured CRH; row = 1st mAb; competitor (2nd mAb) PR303394. As for the experimental part: (§3) SA sensors (Fortebio, Cat #18-5019) were hydrated in running buffer for 10 mins.
Experiment [14] has as its target T2, biotinylated CRH. Kind of experiment: ELISA, CRH (CT biotin). As for the experimental part: as §1
Experiment [15] deals with T3, CRH (Central Region, CT Biotin) (C-terminal K-Biotin).
T3 construct: also called Central CRH
T3 peptide: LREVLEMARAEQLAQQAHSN
The experiment is described as follows: ELISA, CRH central region peptide (CT biotin). As for the experimental part: as §1

In experiment [16] the target is T2, biotinylated CRH. Kind of experiment: Octet in-tandem competition on captured CRH; row = 1st mAb; competitor (2nd mAb) PR006669. Here is the method:
as §3
For orientation: In BLI a coated tip is dipped into the sample, and binding shifts an interference pattern.

The target in experiment [17] is T2, biotinylated CRH. Kind of experiment: Octet in-tandem competition on captured CRH; row = 1st mAb; competitor (2nd mAb) PR301777. As for the experimental part: as §3
Experiment [18] deals with T2, biotinylated CRH. The experiment is described as follows: Octet in-tandem competition on captured CRH; row = 1st mAb; competitor (2nd mAb) PR302341-34. As for the experimental part:
as §3

Experiment [19] addresses T4, human UCN2 peptide, biotinylated (human, UniProt Q96RP3 72-109, limits assumed, biotin at N- or C-terminus).
T4 construct: also called hUCN2 (NT Biotin); hUCN2 (CT Biotin)
T4 peptide (looked up): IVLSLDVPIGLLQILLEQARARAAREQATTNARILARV
The experiment is described as follows: ELISA, hUCN2 (NT biotin) and (CT biotin). As for the experimental part: (§4) Streptavidin (Thermo, Cat: 21125) was diluted in PBS with a concentration of 2 μg/mL. 100 μL of diluted streptavidin was added per well to ELISA microplates, and the plates were incubated overnight at 4° C. Plates were blocked with ELISA blocking solution (containing 2% w/v BSA, 0.05% (v/v) Tween-20, pH 7.4 PBS buffer) at 37° C. for 1 hour, and then incubated with either 1 μg/mL hUCN1 (NT Biotin), hUCN1 (CT Biotin), hUCN2 (NT Biotin), hUCN2 (CT Biotin), hUCN3 (NT Biotin), or hUCN3 (CT Biotin) for 1 hour at 37° C. […] Plates were subsequently washed and incubated with HRP-conjugated goat anti-human IgG (H+L) antibody (Jackson, Cat: 109-035-088) at 37° C. for 1 hour. 100 μl of TMB Substrate (Biopanda, Cat: TMB-S-003) was added, and the plates were incubated at room temperature for 15 minutes. 100 μL of ELISA stopping solution (Solarbio, Cat #: C1058) was then added to terminate the reaction, and the OD450 nm was determined by an ELISA plate reader (Molecular Devices, Spectra max 384 plus).

For experiment [20], the target named is T2, biotinylated CRH. Kind of experiment: Octet in-tandem competition on captured CRH; row = 1st mAb; competitor (2nd mAb) PR005660. As for the experimental part:
as §3

In experiment [21] the target is T5, N-Terminal CRH peptide (N-terminal region plus central region, CT biotin) (human and mouse, C-terminal K-Biotin).
T5 construct: also called N-Ter-CRH
T5 peptide: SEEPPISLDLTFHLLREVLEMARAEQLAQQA
Kind of experiment: ELISA, N-Ter-CRH (CT-biotin) on streptavidin. As for the experimental part:
as §1

Experiment [22] has as its target T6, CRH (Central Region, NT Biotin) (N-terminal Biotin-K; C-terminal NH2).
T6 construct: also called Central CRH
T6 peptide: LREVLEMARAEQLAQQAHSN
The experiment is described as follows: ELISA, CRH central region peptide (NT biotin). As for the experimental part: as §1

In experiment [23] the target is T2, biotinylated CRH. Kind of experiment: Octet in-tandem competition on captured CRH; row = 1st mAb; competitor (2nd mAb) PR302334. As for the experimental part: as §3
For experiment [24], the target named is T2, biotinylated CRH. The experiment is described as follows: Octet in-tandem competition on captured CRH; row = 1st mAb; competitor (2nd mAb) PR302309-8. As for the experimental part: as §3
The target of experiment [25] is T2, biotinylated CRH. Kind of experiment: ELISA, CRH (NT biotin). As for the experimental part:
as §1

Experiment [26] deals with T1, corticotropin-releasing hormone (CRH) …. The experiment is described as follows: cell-based or functional assay.
Experiment [27] deals with T7, human UCN3 peptide, biotinylated (human, UniProt Q969E3 120-157, biotin at N- or C-terminus).
T7 construct: also called hUCN3 (NT Biotin); hUCN3 (CT Biotin)
T7 peptide (looked up): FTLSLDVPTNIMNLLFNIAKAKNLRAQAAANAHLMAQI
The experiment is described as follows: ELISA, hUCN3 (NT biotin) and (CT biotin). Here is the method:
as §4

For experiment [28], the target named is T8, human UCN1 peptide, biotinylated (human, UniProt P55089 83-122, biotin at N- or C-terminus).
T8 construct: also called hUCN1 (NT Biotin); hUCN1 (CT Biotin)
T8 peptide (looked up): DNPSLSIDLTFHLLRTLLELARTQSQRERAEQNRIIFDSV
The experiment is described as follows: ELISA, hUCN1 (NT biotin). Here is the method:
as §1

The target in experiment [29] is T9, CRH (C-Terminal Region, NT Biotin) (N-terminal Biotin-K; C-terminal NH2).
T9 construct: central region plus C-terminal region of CRH; also called C-Terminal CRH; C-Ter-CRH
T9 peptide: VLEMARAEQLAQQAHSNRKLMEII
The experiment is described as follows: ELISA, CRH C-terminal region peptide (NT biotin). As for the experimental part:
as §1

For experiment [30], the target named is T1, corticotropin-releasing hormone (CRH) …. The experiment is described as follows: cell-based or functional assay.

Changes are numbered by the printed parent chain. Like-named read-outs stand apart in the source and are kept apart here.

Broadly, the EC50 (read off the curve) is the concentration giving half of the maximal effect. As a reminder, the % Inhibition is the share of the control response that was lost under treatment. Lower therefore signals little suppression. For orientation: EC50 means the concentration that produces a half-maximal response.

B1: PR004290 (antibody, human IgG1, kappa, V domains shown)
VH: EVQLVESGGVLVQPGGSLRLSCAASGFTFSSYWMTWVRQAPGKGLEWVANIKQDGSEKYYVDSVKGRFTISRDNAKNSLFLQMNSLRAEDTAVYYCARTLIFDYWGQGTLVTVSS
VL: DIVMTQSPLSLPVTPGEPASISCRSSQSLLHSTGYNSLEWYLQKPGQSPQLLIYLGSNRASGVPDRFSGSGSGTDFTLKISRVEAEDVGIYYCMQTLQTPITFGQGTRLEIKR
notes: human IgG1 wildtype Fc; also called Hybridoma Clone 28b3
With B1, the entries for the “IC50 (read off the curve), CRH-induced mCRHR1 luciferase reporter” value in experiment [1] and in experiment [10] were ~8 nM and ~5 nM, respectively. The “IC50 (read off the curve), CRH-induced hCRHR1 luciferase reporter” value in [2] and in [12] was ~3 nM in each case. For the same molecule, the “EC50 (read off the curve)” value with biotinylated CRH [3] was ~0.05 nM; in the experiment with biotinylated CRH [4] it was ~0.05 nM; in the experiment with biotinylated CRH [6], ~0.03 nM; in the experiment with biotinylated CRH [7] it was ~0.01 nM; with biotinylated CRH [8] it was ~0.01 nM; with biotinylated CRH [9], ~0.01 nM. In the experiment with biotinylated CRH [11], the “EC50 (read off the curve)” value was ~0.03 nM. The “IC50 in the hCRHR1 reporter assay” value in experiment [5] is ~5 nM.

B2: PR302309-8 (antibody, human IgG1, kappa, V domains shown)
VH: QIQLVQSGSELKKPGASVKVSCKASGYTFTNYGMNWVRQAPGQGLEWMGWINTYTGEPIYTDDFKGRFVFSLDTSVSTAYLQISSLKAEDTAVYYCSRSTMITTGGVFAYWGQGTLVTVSS
VL: DVVMTQSPLSLPVTLGQPASISCRSSQTIVHSDGNTYLEWYQQRPGQSPRLLIYKVSNRFSGVPDRFSGSGSGTDFTLKISRVEAEDLGVYYCFQGSHVPWTFGGGTKVEIKR
As to B2, the “% Inhibition” value with biotinylated CRH [13] amounted to 77%; with biotinylated CRH [16], 76%; with biotinylated CRH [17] it was 80%; in the experiment with biotinylated CRH [18], 74%; with biotinylated CRH [20], 76%; with biotinylated CRH [23], 65%. In addition, in the experiment with biotinylated CRH [24], the “% Inhibition” value worked out at 87%. Also, the entries for the “EC50 (read off the curve)” value (in the experiment with biotinylated CRH [14]; with biotinylated CRH [25]; in experiment [28]) were ~0.03 nM, ~0.03 nM and ~0.1 nM, respectively. The binding result in [15], in experiment [19], in experiment [22], in experiment [27] and in experiment [29] was “no binding (tested: 100 nM)” throughout. For the same molecule, the EC50 in [21] turned out to be 0.025 nM. Further, the “hCRHR1-Luc 0.5 nM CRH IC50” value in experiment [26] is 1.7 nM.

B3: PR302341-67 (antibody, human IgG1, kappa, V domains shown)
VH: QVQLVQSGAEVKKPGASVKVSCKASGYTFTDYFMKWVRQAPGQGLEWMGVINPNNGDIFYNQKFKGRVTMTVDKSTSTAYMELSSLRSEDTAVYYCARGTDRALFAYWGQGTLVTVSS
VL: B2 VL with S7T, L11S, S26G, T28S, G34A, S48P, S72A, V99I
As to B3, the “IC50 (read off the curve), CRH-induced hCRHR1 luciferase reporter” value in [30] was ~0.2 nM.
